Measured values published in patent US20070060521.

Assays:
[1] = tested on: purified baculovirus-expressed STAT3 (full-length)
[2] = tested on: purified baculovirus-expressed STAT3β

Substance: purified ERKs protein kinases (BIOMOL)
- in vitro phosphorylation of STAT3 (32P-ATP, SDS-PAGE, autoradiography) [1]: STAT3 phosphorylation by ERK, however, is minimal compared to levels achieved for JNK and p38
- in vitro phosphorylation of STAT3b (32P-ATP, SDS-PAGE, autoradiography) [2]: STAT3b does not undergo serine phosphorylation by any of the MAPKs

Substance: purified JNK protein kinase (BIOMOL)
- in vitro phosphorylation of STAT3 (32P-ATP, SDS-PAGE, autoradiography) [1]: p38 and JNK can effectively phosphorylate STAT3 in vitro
- in vitro phosphorylation of STAT3b (32P-ATP, SDS-PAGE, autoradiography) [2]: STAT3b does not undergo serine phosphorylation by any of the MAPKs

Substance: purified p38 protein kinase (AG Scientific)
- in vitro phosphorylation of STAT3 (32P-ATP, SDS-PAGE, autoradiography) [1]: p38 and JNK can effectively phosphorylate STAT3 in vitro
- in vitro phosphorylation of STAT3b (32P-ATP, SDS-PAGE, autoradiography) [2]: STAT3b does not undergo serine phosphorylation by any of the MAPKs
